Data on two substances can be found in patent US20180319872A1.

A value given as a limit tells only on which side of the number the result lay.

In experiment [1] the target is Clostridium difficile toxin A (TcdA) (Clostridium difficile) (UniProt P16154). Put plainly: ELISA on plates coated with 1 ug/ml TcdA (TxA), OD450.
For experiment [2] the target is unchanged. Put plainly: cell-based or functional assay.
Experiment [3] addresses Clostridium difficile toxin B (TcdB) (Clostridium difficile) (UniProt P18177). Put plainly: ELISA on plates coated with 1 ug/ml TcdB (TxB), OD450.

Clostridium difficile toxin A (TcdA) (Clostridium difficile), sequence (P16154 whole entry): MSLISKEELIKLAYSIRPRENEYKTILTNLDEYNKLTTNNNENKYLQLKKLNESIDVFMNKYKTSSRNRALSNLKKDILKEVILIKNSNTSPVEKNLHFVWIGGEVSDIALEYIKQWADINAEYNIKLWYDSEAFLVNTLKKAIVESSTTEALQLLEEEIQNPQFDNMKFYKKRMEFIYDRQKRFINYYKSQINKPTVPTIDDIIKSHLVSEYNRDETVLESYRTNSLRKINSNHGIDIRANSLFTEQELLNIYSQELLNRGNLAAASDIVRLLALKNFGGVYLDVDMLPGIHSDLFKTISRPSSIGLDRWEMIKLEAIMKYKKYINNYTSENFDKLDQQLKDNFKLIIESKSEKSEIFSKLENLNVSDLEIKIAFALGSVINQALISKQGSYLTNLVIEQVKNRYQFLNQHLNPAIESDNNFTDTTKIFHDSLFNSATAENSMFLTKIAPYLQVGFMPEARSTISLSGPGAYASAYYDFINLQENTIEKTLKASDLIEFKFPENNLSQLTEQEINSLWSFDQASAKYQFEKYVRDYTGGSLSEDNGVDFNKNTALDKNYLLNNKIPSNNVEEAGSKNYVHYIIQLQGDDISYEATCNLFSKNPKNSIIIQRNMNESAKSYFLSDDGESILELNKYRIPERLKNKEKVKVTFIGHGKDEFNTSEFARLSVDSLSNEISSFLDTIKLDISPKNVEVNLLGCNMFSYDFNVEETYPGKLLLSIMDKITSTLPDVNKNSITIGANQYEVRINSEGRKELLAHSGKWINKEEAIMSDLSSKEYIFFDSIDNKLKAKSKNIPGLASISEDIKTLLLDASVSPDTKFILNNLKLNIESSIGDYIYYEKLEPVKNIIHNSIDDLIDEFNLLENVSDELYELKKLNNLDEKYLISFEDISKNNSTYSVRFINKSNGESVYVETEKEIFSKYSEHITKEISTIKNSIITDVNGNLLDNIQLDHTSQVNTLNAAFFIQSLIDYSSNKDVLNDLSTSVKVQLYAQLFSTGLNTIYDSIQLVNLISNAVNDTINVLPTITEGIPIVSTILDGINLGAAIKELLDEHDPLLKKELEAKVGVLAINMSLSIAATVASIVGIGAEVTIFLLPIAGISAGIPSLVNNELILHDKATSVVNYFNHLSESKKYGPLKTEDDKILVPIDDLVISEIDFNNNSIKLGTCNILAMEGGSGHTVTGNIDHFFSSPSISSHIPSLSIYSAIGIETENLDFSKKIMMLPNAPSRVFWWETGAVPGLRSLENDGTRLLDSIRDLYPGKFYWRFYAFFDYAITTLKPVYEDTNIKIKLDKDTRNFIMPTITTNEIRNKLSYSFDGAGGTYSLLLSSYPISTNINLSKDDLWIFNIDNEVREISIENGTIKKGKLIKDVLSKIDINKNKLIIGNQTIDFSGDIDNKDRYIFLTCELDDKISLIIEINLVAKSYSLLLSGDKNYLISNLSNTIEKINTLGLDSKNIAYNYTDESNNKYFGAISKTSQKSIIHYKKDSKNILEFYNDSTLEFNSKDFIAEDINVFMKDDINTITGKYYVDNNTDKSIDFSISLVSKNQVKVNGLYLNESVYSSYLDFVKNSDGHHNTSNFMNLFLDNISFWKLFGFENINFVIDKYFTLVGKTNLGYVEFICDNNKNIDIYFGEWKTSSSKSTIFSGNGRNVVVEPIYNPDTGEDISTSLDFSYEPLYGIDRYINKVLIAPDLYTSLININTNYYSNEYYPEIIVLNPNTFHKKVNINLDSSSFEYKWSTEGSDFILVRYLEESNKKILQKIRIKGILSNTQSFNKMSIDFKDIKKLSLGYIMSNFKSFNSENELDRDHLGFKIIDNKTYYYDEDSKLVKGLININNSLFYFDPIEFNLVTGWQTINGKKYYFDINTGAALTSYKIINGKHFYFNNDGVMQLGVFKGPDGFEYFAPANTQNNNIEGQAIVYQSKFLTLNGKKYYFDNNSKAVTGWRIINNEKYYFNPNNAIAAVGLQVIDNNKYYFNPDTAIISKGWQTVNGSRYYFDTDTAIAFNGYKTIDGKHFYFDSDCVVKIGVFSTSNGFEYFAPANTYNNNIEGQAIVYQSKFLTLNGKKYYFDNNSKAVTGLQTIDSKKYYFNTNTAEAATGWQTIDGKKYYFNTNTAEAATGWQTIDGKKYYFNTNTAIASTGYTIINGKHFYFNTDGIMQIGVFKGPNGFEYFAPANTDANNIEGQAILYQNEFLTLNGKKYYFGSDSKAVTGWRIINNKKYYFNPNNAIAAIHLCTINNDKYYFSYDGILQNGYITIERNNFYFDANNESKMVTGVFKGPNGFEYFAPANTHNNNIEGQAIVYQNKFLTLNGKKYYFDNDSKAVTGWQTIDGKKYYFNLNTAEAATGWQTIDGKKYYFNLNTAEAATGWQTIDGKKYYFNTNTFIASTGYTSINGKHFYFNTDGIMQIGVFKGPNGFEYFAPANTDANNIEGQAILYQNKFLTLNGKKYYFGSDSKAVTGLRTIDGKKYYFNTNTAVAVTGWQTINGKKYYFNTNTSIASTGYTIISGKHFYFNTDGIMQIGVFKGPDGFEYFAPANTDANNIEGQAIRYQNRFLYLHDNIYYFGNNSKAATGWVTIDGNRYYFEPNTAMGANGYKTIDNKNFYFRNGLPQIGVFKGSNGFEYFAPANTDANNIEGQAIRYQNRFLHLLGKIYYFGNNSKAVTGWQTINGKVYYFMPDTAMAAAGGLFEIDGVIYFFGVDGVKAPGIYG
Clostridium difficile toxin B (TcdB) (Clostridium difficile), sequence (P18177 2-2366 limits assumed): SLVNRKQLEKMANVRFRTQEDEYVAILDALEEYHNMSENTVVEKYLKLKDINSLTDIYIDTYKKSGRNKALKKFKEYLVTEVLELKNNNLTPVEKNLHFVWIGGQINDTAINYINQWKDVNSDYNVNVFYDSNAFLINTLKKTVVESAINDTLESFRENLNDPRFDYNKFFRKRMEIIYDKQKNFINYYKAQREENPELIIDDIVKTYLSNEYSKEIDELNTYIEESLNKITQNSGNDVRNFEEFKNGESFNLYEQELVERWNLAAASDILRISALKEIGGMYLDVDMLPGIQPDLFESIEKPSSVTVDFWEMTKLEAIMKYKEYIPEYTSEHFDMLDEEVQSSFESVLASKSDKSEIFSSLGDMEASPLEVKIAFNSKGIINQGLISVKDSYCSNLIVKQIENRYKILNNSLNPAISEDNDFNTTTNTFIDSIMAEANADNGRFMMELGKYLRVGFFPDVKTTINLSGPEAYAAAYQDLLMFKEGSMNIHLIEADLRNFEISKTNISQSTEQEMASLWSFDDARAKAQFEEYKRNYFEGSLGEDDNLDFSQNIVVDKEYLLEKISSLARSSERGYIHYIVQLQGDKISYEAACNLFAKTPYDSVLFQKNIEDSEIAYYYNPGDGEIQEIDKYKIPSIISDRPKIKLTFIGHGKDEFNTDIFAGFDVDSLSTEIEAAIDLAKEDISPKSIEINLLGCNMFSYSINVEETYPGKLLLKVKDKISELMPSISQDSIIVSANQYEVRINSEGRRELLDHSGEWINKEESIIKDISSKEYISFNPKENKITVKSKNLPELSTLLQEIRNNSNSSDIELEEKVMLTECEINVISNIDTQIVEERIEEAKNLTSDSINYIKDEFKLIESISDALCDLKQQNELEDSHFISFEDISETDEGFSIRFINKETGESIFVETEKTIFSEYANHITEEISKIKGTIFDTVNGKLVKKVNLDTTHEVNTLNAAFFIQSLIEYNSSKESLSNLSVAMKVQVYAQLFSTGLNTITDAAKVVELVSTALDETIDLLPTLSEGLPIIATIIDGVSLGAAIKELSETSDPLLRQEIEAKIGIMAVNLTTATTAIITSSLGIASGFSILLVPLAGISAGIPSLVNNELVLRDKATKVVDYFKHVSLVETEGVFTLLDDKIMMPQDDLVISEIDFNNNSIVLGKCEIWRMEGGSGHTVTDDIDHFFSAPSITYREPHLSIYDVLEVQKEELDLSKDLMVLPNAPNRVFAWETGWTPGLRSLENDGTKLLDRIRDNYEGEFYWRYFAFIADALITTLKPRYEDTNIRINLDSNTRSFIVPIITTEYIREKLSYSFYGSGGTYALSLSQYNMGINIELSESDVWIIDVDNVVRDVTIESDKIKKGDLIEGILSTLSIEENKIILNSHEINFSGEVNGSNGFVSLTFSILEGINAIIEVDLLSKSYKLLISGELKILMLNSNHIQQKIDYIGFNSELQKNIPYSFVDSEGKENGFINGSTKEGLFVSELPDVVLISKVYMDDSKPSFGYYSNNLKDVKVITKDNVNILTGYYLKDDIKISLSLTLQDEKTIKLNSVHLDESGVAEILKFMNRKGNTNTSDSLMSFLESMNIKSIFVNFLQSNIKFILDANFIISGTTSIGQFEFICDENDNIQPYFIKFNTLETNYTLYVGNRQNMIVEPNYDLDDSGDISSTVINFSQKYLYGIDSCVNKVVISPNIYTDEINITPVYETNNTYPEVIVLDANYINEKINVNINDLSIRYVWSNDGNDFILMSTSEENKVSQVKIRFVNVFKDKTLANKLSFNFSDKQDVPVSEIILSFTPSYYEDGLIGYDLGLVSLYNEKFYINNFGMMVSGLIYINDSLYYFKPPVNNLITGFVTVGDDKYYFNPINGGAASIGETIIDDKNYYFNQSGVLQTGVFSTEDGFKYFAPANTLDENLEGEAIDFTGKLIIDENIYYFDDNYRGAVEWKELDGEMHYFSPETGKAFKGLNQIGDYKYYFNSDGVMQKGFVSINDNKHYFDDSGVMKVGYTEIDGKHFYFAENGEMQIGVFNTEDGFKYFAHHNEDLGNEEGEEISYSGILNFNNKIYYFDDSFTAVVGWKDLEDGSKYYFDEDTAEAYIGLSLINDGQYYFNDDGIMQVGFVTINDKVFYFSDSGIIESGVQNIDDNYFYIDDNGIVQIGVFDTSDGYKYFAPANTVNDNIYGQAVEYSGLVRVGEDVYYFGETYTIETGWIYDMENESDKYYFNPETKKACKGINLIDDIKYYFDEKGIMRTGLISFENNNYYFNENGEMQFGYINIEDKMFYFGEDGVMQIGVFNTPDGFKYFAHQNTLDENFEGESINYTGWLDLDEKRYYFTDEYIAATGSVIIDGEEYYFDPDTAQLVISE

With “Merck anti-TcdA human monoclonal antibody (actoxumab)”, the 50% effective concentration (EC50 (read off the curve)) in experiment [1] was found to be 2 ng/mL. Also, in experiment [2], the minimal dose protecting Vero cells from TcdA-induced cell rounding (5 ng/ml TcdA) was over 10 nM. The substance Merc Ab (antibody) came in with a concentration for a half-maximal effect (EC50 (read off the curve)) in experiment [3] of 10 ng/mL.
